Data from the RNAGym collection of RNA variant scans (doi:10.1073/pnas.2313332121).
Fewer inactive variants are shown than the library holds.

B1: TPR 5TU (parent)
chain: GGAUCUUCUCGAUCUAACAAAAAAGACAAAUCUGCCACAAAGCUUGAGAGCAUCUUCGGAUGCAGAGGCGGCAGCCUUCGGUGGCGCGAUAGCGCCAACGUUCUCAACUAUGACACGCAAAACGCGUGCUCCGUUGAAUGGAGUUUAUCAUG

Variants of: B1
Test: polymerase ribozyme fitness, log enrichment relative to wild type (log ratio); higher = more active; in vitro selection for triplet polymerase activity
Method in brief: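 Fitness is a logarithmic measure of how a genotype enriched relative to the wild type, with replicate averages weighted by inverse variance. The logarithm uses base 2, and enrichment came from Illumina sequencing of input and output libraries. Those libraries were PCR-built, transcribed mutants of each subunit of a heterodimeric triplet polymerase ribozyme, passed through one triplicate in vitro selection round that included frozen incubation at −7 °C, gel excision of extended constructs and streptavidin-bead capture. Genotypes were kept only if they had ≥10 input reads and ≥1 read per output.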

Variant | polymerase ribozyme fitness (log ratio)
GGAUCUUCUCGUUAUAACAAAAAUGACAAAUCUGCCACAAAGCUUGAGAGCAUCUACGGAUGCAGAGGCGGCAGCCUUCGGUGGUGCGAUAGCGCCAAUGUUCUCAACUAUGACACGCAAAACGCGUGCUCCGUUGAAUGAAGUUUAUCAUG [A12U C14A A24U U56A C85U C99U G141A] | ≤ -4.2
GGAUCUUCUCGUUCUAACAAAAAAGACUAAUCUGCCACAAUGCUUGAGAGCAGCUGCGGAUGCAGAGGCGGCAGCCUUCGGUGACGCGAUGGGGCCAACGUUCUCAACUAUGACACGCAAAACGCGUGCUCCGUUGAAUUGAGUUUAUCAUG [A12U A28U A41U U53G U56G G84A A91G C93G G140U] | ≤ -4.2
GGAUCUUCUCGUUCUAACAAAAAAGACUAAUCUGCCACAAAGCGUGAGAGCAUCUUCGGAUGCAGAGGCGGCAGCCUUCGGUGGCGCGAUAGAGCCAACGUACUCAACUAUGACACGCAAAACGCGUGCUCCGUUGAAUGGAGUUUAUCAUG [A12U A28U U44G C93A U102A] | ≤ -4.2
GGAUCUUCUCGUUCUAACAAAACAGACAAAUCUGCCACAAAGCUUGAGAGCAUUUUCGGAUGCAGAGGCGGCAGCCUUCGGUGGCGCGAUAGCGCCAACGUUCUCAACUAUGACAGGCAAAACGCGUGCUCCGUUGAAUGGAGUUUCUCAAG [A12U A23C C54U C116G A147C U151A] | ≤ -4.2
GGAUCUUCUCGUUCUAACAAAAAAGACAAAUCUGCCACUAAGCUUGAGAGCAUCUUCGGAUGCAGAGGCGGCAGCCUUCGGUGGCGCGAUAGCGCCAACGUUCUCAACUAUGACACGCAAAACGCGUGCUCCGUUGAAUGGAGUUUAUCCUG [A12U A39U A150C] | ≤ -4.2
GGAUCUUCUCGUUCUAACAAAAAAGACAAAUCUGCCACAACGCUUGAGAGCAUCUUCGGAUGCAGAGGCGGCAGCCUUCGGUCGCGCGAUAGCGCCAACGUUCUCAACUAUGACACGGAAAACGCGUGCUCCUUUGAAUGGAGUUUAUCAUG [A12U A41C G83C C118G G133U] | ≤ -4.2
GGAUCUUCUCGUUUUAACAAUAAAGACAAAUCUGCCACAAAGCUUGAGGGCAUCUUCGGAUGCAGAGGCGGCAGGCUUCGGUGGCGCGAUAGCGCCAACGUUCUCAACUAUGACAUGCAACACGCGUGCUCCGUUGAAUGGAGUUGAUCAGG [A12U C14U A21U A49G C75G C116U A121C U146G U151G] | ≤ -4.2
GGAUCUUCUCGUUCUAACAAAAAAGAUAAAUCUGCCACAAAGCUUGAGAGCAUCUUCGGAUGCAGAGGCGGCUGCCUUCGGUGGCGCGAUAGCGCGUACGUUCUCAGCUAUGACACGCAAAACGCGUGCUCCGUUGAAUGGAGUUUAUCAUG [A12U C27U A73U C96G A97U A107G] | ≤ -4.2
GGAUCUUCUCGUUCUAACAAAAAAGACAAAUCUGCCACAAUGCUUGAGAGCAUCUUCGGAUGCACAGGCCGCAGCCUUUGGUGGCGCGAUAGCGCCAACGUUCUCAACUAUGACACGCAAAACGCGUGCUCCGUUGAAUGGAGUUUAUCAUG [A12U A41U G65C G70C C79U] | ≤ -4.2
GGAUCUUCUCGUUCUAACAAAAACGACAAAUCUGCCACAAAGCUUGAGAGCAUCUUCGGAUGGAGAGGCGGCAGCCUUCGGUGGUGAGAUAGCCCCAACGUUCUCAGCUAUGACACGCAAAACGCAUGCUCCGUUGGAUGUAGUUUAUCAUG [A12U A24C C63G C85U C87A G94C A107G G126A A137G G141U] | ≤ -4.2
GGAUCUUCUCGUUCUAAAAAAAAAGACAAAUCUGCUACAAAGCUUGAGAGCAUCUUAGGAUGCAGAGGCGGCAGCCUUCGGUGGCGCGAUAGCGUCGUCGUUCUCAACUAUGACACGCAAAACGUGUGCUCCGUUGAAUGGAGUUUAUCAUG [A12U C18A C36U C57A C95U A97G A98U C125U] | -3.95
GGAUCUUCUCGUUCUAACAAAAAAGCCAAAUCUGACACAAAGCUUGAGAGCAUCCUCGCAUGCAGAGGCGGCAGCAUUCGGUGGCGCGAUAGAGCCAACGUUCUCAACUACGACACGCAAAACGCGUGCUCCGUUGAGUGGAGAUUAUCAUG [A12U A26C C35A U55C G59C C76A C93A U111C A138G U144A] | ≤ -4.2
GGAUCUUCUCGUUCUAACAAAAAAGACUAAUCUGCCACAAAGCUUGAGAGCAUCUUCGGAUGCAGAGGCGGCAGCCUUCGGUGGCGCGAUAGCGCCAACGUACUCAACUAUGACACGCAAAACGCGUGCUCCGUUGAAGGGAGUUUAGCAUG [A12U A28U U102A U139G U148G] | -4.1
GGAUCUUCUCGUUCUAACAAAAAAGACAAAUCUGCCACAAAGCUUGAGAGCCUCUUCGGAUGCAGAGGCGGCAGCCUUCGGUGACGCGAUAGCGCCAGCGUUCUCAACUAUGACACGCAAAACGCGUGCUCCGUUGAAUGGAGUUUAUCAUG [A12U A52C G84A A98G] | -2.65
GGAUCUUCUCGUUCUAACAAAAAAGACAAAUCUGCCACAAAGCUUGAGAGCAUCUUCGGAUGCAGAGGCGGCAGCCUUCGGUGGCGCGAUAGCGCCAACGUUCUCAACUGUGACACGCAAAACGCGUGCUCCGUUGAAUGGAGUUUAUCAUG [A12U A110G] | -3.35
GGAUCUUCUCGUUCUAACAAAAAAGACAAAUCUGCCACAUAGCUUGAGAGCAUCUUCGGAUGCAGAGGCGGCAGCCUUCGGUGGUGCGAUAGCGCCAACGUUCUCAACUAUGACACGCAAAACGCGUGCUCCGUUGAAUGGAGUCUAUCAUG [A12U A40U C85U U145C] | -1.21
GGAUCUUCUCGUUCUAACAAAAAAGACUAAUCUGCCACAAAGCUUGAGAGCAUCGUCGGAUGCAGCGGCGGCACCCUUCCGUGGAGUGAUAGCGCUAACGUUCUCAACUAUGACACGCAAAACGCGUGCUCCGUUGAAUGGAGUUUAUCAUG [A12U A28U U55G A66C G74C G80C C85A C87U C96U] | ≤ -4.2
GGAUCUUCUCGUUCUAACAAAAAAGACAAAUCUGCCACCAAGCUUGAGAGCGUCUUGGGAUGCAGAGGCGGCAGCCUUCGGUGGCGCGAUAGCGCCAACGUUCUCAACUAUGACACGCAAAACGCGUGCUCCGUUGAAUGGAGUUUAUCAUG [A12U A39C A52G C57G] | -4.2
GGAUCUUCUCGUUCUAAUGAAAAAGACAAAUCUGCCACAAAGCUUGAGAGCAUCUGCGGUUGCAGAGGCGGCAGCGUUCGGUGGCGCGAUAGCGCCAACGUUCUCAAUUAUGAGACGCAAAACGCGUGCUCCGUUGAAUGGAGUUUAUCAUG [A12U C18U A19G U56G A60U C76G C108U C114G] | ≤ -4.2
